From paper PMC13397619

B1: NLV3 TCR beta chain (CDR3β only) (parent)
chain: ASSPTGGSPSPLH
partner: NLCPMVATV

Variants of: B1
Experiment: T-Switch: Jurkat TCRβ−/− cells expressing a CDR3 saturation-mutagenesis library, stained with two peptide-HLA-A*02:01 tetramers (original and novel peptide) plus anti-CD3, FACS-sorted into four gates, gDNA sequenced
Details: with HLA-A*02:01 with peptide … (NLV 2-1, the novel peptide), tetramers 1 µg/mL, 30 min on ice, SP, DP and SW gates expanded about 10 days between rounds ('two to three rounds of selection' in the Methods), gate SW: higher = more of the variant in the gate that binds the novel peptide and not the original one = switched binding. Fold enrichment of the CDR3 variant in one FACS gate of a two-tetramer stain, unresolved parent, parent is a CDR3 fragment, scale: fold enrichment, numbering: sequential-on-construct, sequence starts at 1

Row | Variant | enrichment
1 | […] (CDR3 as printed); S2K derived by comparing it with the table's wild-type CDR3 ASSPTGGSPSPLH | 0
2 | […] (CDR3 as printed); S2M derived by comparing it with the table's wild-type CDR3 ASSPTGGSPSPLH | 0
3 | […] (CDR3 as printed); S2N derived by comparing it with the table's wild-type CDR3 ASSPTGGSPSPLH | 0
4 | […] (CDR3 as printed); S2P derived by comparing it with the table's wild-type CDR3 ASSPTGGSPSPLH | 0
5 | […] (CDR3 as printed); S2Q derived by comparing it with the table's wild-type CDR3 ASSPTGGSPSPLH | 0
6 | […] (CDR3 as printed); S2R derived by comparing it with the table's wild-type CDR3 ASSPTGGSPSPLH | 0
7 | […] (CDR3 as printed); S2T derived by comparing it with the table's wild-type CDR3 ASSPTGGSPSPLH | 0
8 | […] (CDR3 as printed); S2V derived by comparing it with the table's wild-type CDR3 ASSPTGGSPSPLH | 0
9 | […] (CDR3 as printed); S2Y derived by comparing it with the table's wild-type CDR3 ASSPTGGSPSPLH | 0
10 | […] (CDR3 as printed); S3A derived by comparing it with the table's wild-type CDR3 ASSPTGGSPSPLH | 0
11 | […] (CDR3 as printed); S3C derived by comparing it with the table's wild-type CDR3 ASSPTGGSPSPLH | 0
12 | […] (CDR3 as printed); S3D derived by comparing it with the table's wild-type CDR3 ASSPTGGSPSPLH | 0
13 | […] (CDR3 as printed); S3E derived by comparing it with the table's wild-type CDR3 ASSPTGGSPSPLH | 0
14 | […] (CDR3 as printed); S3F derived by comparing it with the table's wild-type CDR3 ASSPTGGSPSPLH | 0
15 | […] (CDR3 as printed); S3G derived by comparing it with the table's wild-type CDR3 ASSPTGGSPSPLH | 0
16 | […] (CDR3 as printed); S3H derived by comparing it with the table's wild-type CDR3 ASSPTGGSPSPLH | 0
17 | […] (CDR3 as printed); S3I derived by comparing it with the table's wild-type CDR3 ASSPTGGSPSPLH | 0
18 | […] (CDR3 as printed); S3K derived by comparing it with the table's wild-type CDR3 ASSPTGGSPSPLH | 0
19 | […] (CDR3 as printed); S3L derived by comparing it with the table's wild-type CDR3 ASSPTGGSPSPLH | 0
20 | […] (CDR3 as printed); S3M derived by comparing it with the table's wild-type CDR3 ASSPTGGSPSPLH | 0
21 | […] (CDR3 as printed); S3N derived by comparing it with the table's wild-type CDR3 ASSPTGGSPSPLH | 0

Row | Variant | enrichment
22 | […] (CDR3 as printed); S3P derived by comparing it with the table's wild-type CDR3 ASSPTGGSPSPLH | 0
23 | […] (CDR3 as printed); S3Q derived by comparing it with the table's wild-type CDR3 ASSPTGGSPSPLH | 0
24 | […] (CDR3 as printed); S3R derived by comparing it with the table's wild-type CDR3 ASSPTGGSPSPLH | 0
25 | […] (CDR3 as printed); S3T derived by comparing it with the table's wild-type CDR3 ASSPTGGSPSPLH | 0
26 | […] (CDR3 as printed); S3V derived by comparing it with the table's wild-type CDR3 ASSPTGGSPSPLH | 0
27 | […] (CDR3 as printed); S3W derived by comparing it with the table's wild-type CDR3 ASSPTGGSPSPLH | 0
28 | […] (CDR3 as printed); S3Y derived by comparing it with the table's wild-type CDR3 ASSPTGGSPSPLH | 0
29 | […] (CDR3 as printed); S8A derived by comparing it with the table's wild-type CDR3 ASSPTGGSPSPLH | 0
30 | […] (CDR3 as printed); S8C derived by comparing it with the table's wild-type CDR3 ASSPTGGSPSPLH | 0
31 | […] (CDR3 as printed); S8D derived by comparing it with the table's wild-type CDR3 ASSPTGGSPSPLH | 0
32 | […] (CDR3 as printed); S8E derived by comparing it with the table's wild-type CDR3 ASSPTGGSPSPLH | 0
33 | […] (CDR3 as printed); S8F derived by comparing it with the table's wild-type CDR3 ASSPTGGSPSPLH | 0
34 | […] (CDR3 as printed); S8G derived by comparing it with the table's wild-type CDR3 ASSPTGGSPSPLH | 0
35 | […] (CDR3 as printed); S8H derived by comparing it with the table's wild-type CDR3 ASSPTGGSPSPLH | 0
36 | […] (CDR3 as printed); S8I derived by comparing it with the table's wild-type CDR3 ASSPTGGSPSPLH | 0
37 | […] (CDR3 as printed); S8K derived by comparing it with the table's wild-type CDR3 ASSPTGGSPSPLH | 0
38 | […] (CDR3 as printed); S8L derived by comparing it with the table's wild-type CDR3 ASSPTGGSPSPLH | 0
39 | […] (CDR3 as printed); S8M derived by comparing it with the table's wild-type CDR3 ASSPTGGSPSPLH | 0
40 | […] (CDR3 as printed); S8N derived by comparing it with the table's wild-type CDR3 ASSPTGGSPSPLH | 0
41 | […] (CDR3 as printed); S8P derived by comparing it with the table's wild-type CDR3 ASSPTGGSPSPLH | 0
42 | […] (CDR3 as printed); S8Q derived by comparing it with the table's wild-type CDR3 ASSPTGGSPSPLH | 0

Row | Variant | enrichment
43 | […] (CDR3 as printed); S8R derived by comparing it with the table's wild-type CDR3 ASSPTGGSPSPLH | 0
44 | […] (CDR3 as printed); S8T derived by comparing it with the table's wild-type CDR3 ASSPTGGSPSPLH | 0
45 | […] (CDR3 as printed); S8V derived by comparing it with the table's wild-type CDR3 ASSPTGGSPSPLH | 0
46 | […] (CDR3 as printed); S8W derived by comparing it with the table's wild-type CDR3 ASSPTGGSPSPLH | 0
47 | […] (CDR3 as printed); S8Y derived by comparing it with the table's wild-type CDR3 ASSPTGGSPSPLH | 0
48 | […] (CDR3 as printed); S10A derived by comparing it with the table's wild-type CDR3 ASSPTGGSPSPLH | 0
49 | […] (CDR3 as printed); S10C derived by comparing it with the table's wild-type CDR3 ASSPTGGSPSPLH | 0
50 | […] (CDR3 as printed); S10D derived by comparing it with the table's wild-type CDR3 ASSPTGGSPSPLH | 0
51 | […] (CDR3 as printed); S10E derived by comparing it with the table's wild-type CDR3 ASSPTGGSPSPLH | 0
52 | […] (CDR3 as printed); S10F derived by comparing it with the table's wild-type CDR3 ASSPTGGSPSPLH | 0
53 | […] (CDR3 as printed); S10G derived by comparing it with the table's wild-type CDR3 ASSPTGGSPSPLH | 0
54 | […] (CDR3 as printed); S10H derived by comparing it with the table's wild-type CDR3 ASSPTGGSPSPLH | 0
55 | […] (CDR3 as printed); S10I derived by comparing it with the table's wild-type CDR3 ASSPTGGSPSPLH | 0
56 | […] (CDR3 as printed); S10K derived by comparing it with the table's wild-type CDR3 ASSPTGGSPSPLH | 0
57 | […] (CDR3 as printed); S10L derived by comparing it with the table's wild-type CDR3 ASSPTGGSPSPLH | 0
58 | […] (CDR3 as printed); S10M derived by comparing it with the table's wild-type CDR3 ASSPTGGSPSPLH | 0
59 | […] (CDR3 as printed); S10N derived by comparing it with the table's wild-type CDR3 ASSPTGGSPSPLH | 0
60 | […] (CDR3 as printed); S10P derived by comparing it with the table's wild-type CDR3 ASSPTGGSPSPLH | 0
61 | […] (CDR3 as printed); S10Q derived by comparing it with the table's wild-type CDR3 ASSPTGGSPSPLH | 0
62 | […] (CDR3 as printed); S10R derived by comparing it with the table's wild-type CDR3 ASSPTGGSPSPLH | 0
63 | […] (CDR3 as printed); S10T derived by comparing it with the table's wild-type CDR3 ASSPTGGSPSPLH | 0

Row | Variant | enrichment
64 | […] (CDR3 as printed); S10V derived by comparing it with the table's wild-type CDR3 ASSPTGGSPSPLH | 0
65 | […] (CDR3 as printed); S10W derived by comparing it with the table's wild-type CDR3 ASSPTGGSPSPLH | 0
66 | […] (CDR3 as printed); T5A derived by comparing it with the table's wild-type CDR3 ASSPTGGSPSPLH | 0
67 | […] (CDR3 as printed); T5C derived by comparing it with the table's wild-type CDR3 ASSPTGGSPSPLH | 0
68 | […] (CDR3 as printed); T5D derived by comparing it with the table's wild-type CDR3 ASSPTGGSPSPLH | 0
69 | […] (CDR3 as printed); T5E derived by comparing it with the table's wild-type CDR3 ASSPTGGSPSPLH | 0
70 | […] (CDR3 as printed); T5F derived by comparing it with the table's wild-type CDR3 ASSPTGGSPSPLH | 0
71 | […] (CDR3 as printed); T5G derived by comparing it with the table's wild-type CDR3 ASSPTGGSPSPLH | 0
72 | […] (CDR3 as printed); T5H derived by comparing it with the table's wild-type CDR3 ASSPTGGSPSPLH | 0
73 | […] (CDR3 as printed); T5I derived by comparing it with the table's wild-type CDR3 ASSPTGGSPSPLH | 0
74 | […] (CDR3 as printed); T5K derived by comparing it with the table's wild-type CDR3 ASSPTGGSPSPLH | 0
75 | […] (CDR3 as printed); T5L derived by comparing it with the table's wild-type CDR3 ASSPTGGSPSPLH | 0
76 | […] (CDR3 as printed); T5M derived by comparing it with the table's wild-type CDR3 ASSPTGGSPSPLH | 0
77 | […] (CDR3 as printed); T5N derived by comparing it with the table's wild-type CDR3 ASSPTGGSPSPLH | 0
78 | […] (CDR3 as printed); T5P derived by comparing it with the table's wild-type CDR3 ASSPTGGSPSPLH | 0
79 | […] (CDR3 as printed); T5Q derived by comparing it with the table's wild-type CDR3 ASSPTGGSPSPLH | 0
80 | […] (CDR3 as printed); T5R derived by comparing it with the table's wild-type CDR3 ASSPTGGSPSPLH | 0
81 | […] (CDR3 as printed); T5S derived by comparing it with the table's wild-type CDR3 ASSPTGGSPSPLH | 0
82 | […] (CDR3 as printed); T5V derived by comparing it with the table's wild-type CDR3 ASSPTGGSPSPLH | 0
83 | […] (CDR3 as printed); T5W derived by comparing it with the table's wild-type CDR3 ASSPTGGSPSPLH | 0
84 | […] (CDR3 as printed); T5Y derived by comparing it with the table's wild-type CDR3 ASSPTGGSPSPLH | 0
